From FireProtDB (doi:10.1074/jbc.m110728200) come the findings set out here.

To fix the notation:
B1: Lysozyme C, P61626 (parent)
chain: MKALIVLGLVLLSVTVQGKVFERCELARTLKRLGMDGYRGISLANWMCLAKWESGYNTRATNYNAGDRSTDYGIFQINSRYWCNDGKTPGAVNACHLSCSALLQDNIADAVACAKRVVRDPQGIRAWVAWRNRCQNRDVRQYVQGCGV

The term Tm denotes the temperature at the midpoint of the melting transition.

In one data set the parent is B1. As to conditions: Homo sapiens; pH 2.6; Thermal; DSC; Gly-HCl 0.05 M; structure 1LZ1; whole UniProt chain shown.
As for MKALIVLGLVLLSVTVQGKNFERCELARTLKRLGMDGYRGISLANWMCLAKWESGYNTRATNYNAGDRSTDYGIFQINSRYWCNDGKTPGAVNACHLSCSALLQDNIADAVACAKRVVRDPQGIRAWVAWRNRCQNRDVRQYVQGCGV, the Tm was 59.1 °C, the “unfolding enthalpy (calorimetric)” value was found to be 104 kcal/mol and the “unfolding enthalpy (van 't Hoff)” value was determined as 99.9 kcal/mol.
Consider MKALIVLGLVLLSVTVQGKRFERCELARTLKRLGMDGYRGISLANWMCLAKWESGYNTRATNYNAGDRSTDYGIFQINSRYWCNDGKTPGAVNACHLSCSALLQDNIADAVACAKRVVRDPQGIRAWVAWRNRCQNRDVRQYVQGCGV, for which the Tm turned out to be 62.1 °C, the “unfolding enthalpy (calorimetric)” value is 103 kcal/mol and the “unfolding enthalpy (van 't Hoff)” value is 110 kcal/mol.

The data set is the same for the next values; noted with them: Homo sapiens; pH 2.7; 64.9 °C; Thermal; DSC; Gly-HCl 0.05 M; structure 1LZ1; whole UniProt chain shown.
Take MKALIVLGLVLLSVTVQGKNFERCELARTLKRLGMDGYRGISLANWMCLAKWESGYNTRATNYNAGDRSTDYGIFQINSRYWCNDGKTPGAVNACHLSCSALLQDNIADAVACAKRVVRDPQGIRAWVAWRNRCQNRDVRQYVQGCGV: the “ddG of mutation (higher = less stable)” value amounted to 1.34 kcal/mol, the “heat capacity change of unfolding” value was determined as 1.7 kcal/mol/K and the “unfolding enthalpy (calorimetric)” value was 114 kcal/mol.
The corresponding values for MKALIVLGLVLLSVTVQGKSFERCELARTLKRLGMDGYRGISLANWMCLAKWESGYNTRATNYNAGDRSTDYGIFQINSRYWCNDGKTPGAVNACHLSCSALLQDNIADAVACAKRVVRDPQGIRAWVAWRNRCQNRDVRQYVQGCGV are 1.41 kcal/mol, 1.55 kcal/mol/K and 111 kcal/mol.
The matching figures for MKALIVLGLVLLSVTVQGKRFERCELARTLKRLGMDGYRGISLANWMCLAKWESGYNTRATNYNAGDRSTDYGIFQINSRYWCNDGKTPGAVNACHLSCSALLQDNIADAVACAKRVVRDPQGIRAWVAWRNRCQNRDVRQYVQGCGV: 0.38 kcal/mol, 1.41 kcal/mol/K and 106 kcal/mol.

The data set is the same for the next values; noted with them: Homo sapiens; pH 2.7; Thermal; DSC; Gly-HCl 0.05 M; structure 1LZ1; whole UniProt chain shown.
With MKALIVLGLVLLSVTVQGKNFERCELARTLKRLGMDGYRGISLANWMCLAKWESGYNTRATNYNAGDRSTDYGIFQINSRYWCNDGKTPGAVNACHLSCSALLQDNIADAVACAKRVVRDPQGIRAWVAWRNRCQNRDVRQYVQGCGV, the midpoint of thermal melting (Tm) came out at 60.8 °C and the “change of melting temperature, mutant - wild type (higher = more stable)” value was -4.1 °C.
The matching figures for MKALIVLGLVLLSVTVQGKSFERCELARTLKRLGMDGYRGISLANWMCLAKWESGYNTRATNYNAGDRSTDYGIFQINSRYWCNDGKTPGAVNACHLSCSALLQDNIADAVACAKRVVRDPQGIRAWVAWRNRCQNRDVRQYVQGCGV: 60.5 °C and -4.4 °C.
The corresponding values for MKALIVLGLVLLSVTVQGKRFERCELARTLKRLGMDGYRGISLANWMCLAKWESGYNTRATNYNAGDRSTDYGIFQINSRYWCNDGKTPGAVNACHLSCSALLQDNIADAVACAKRVVRDPQGIRAWVAWRNRCQNRDVRQYVQGCGV are 63.6 °C and -1.3 °C.

Staying with this data set, now noted: Homo sapiens; pH 2.82; Thermal; DSC; Gly-HCl 0.05 M; structure 1LZ1; whole UniProt chain shown.
As for MKALIVLGLVLLSVTVQGKNFERCELARTLKRLGMDGYRGISLANWMCLAKWESGYNTRATNYNAGDRSTDYGIFQINSRYWCNDGKTPGAVNACHLSCSALLQDNIADAVACAKRVVRDPQGIRAWVAWRNRCQNRDVRQYVQGCGV, the Tm was 62.7 °C, the “unfolding enthalpy (calorimetric)” value was 110 kcal/mol and the “unfolding enthalpy (van 't Hoff)” value is 105 kcal/mol.

The same data set, now with this note: Homo sapiens; pH 3.01; Thermal; DSC; Gly-HCl 0.05 M; structure 1LZ1; whole UniProt chain shown.
On to MKALIVLGLVLLSVTVQGKNFERCELARTLKRLGMDGYRGISLANWMCLAKWESGYNTRATNYNAGDRSTDYGIFQINSRYWCNDGKTPGAVNACHLSCSALLQDNIADAVACAKRVVRDPQGIRAWVAWRNRCQNRDVRQYVQGCGV, for which the Tm turned out to be 66.3 °C, the “unfolding enthalpy (calorimetric)” value amounted to 117 kcal/mol and the “unfolding enthalpy (van 't Hoff)” value worked out at 111 kcal/mol.

Staying with this data set, now noted: Homo sapiens; pH 2.65; Thermal; DSC; Gly-HCl 0.05 M; structure 1LZ1; whole UniProt chain shown.
Consider MKALIVLGLVLLSVTVQGKSFERCELARTLKRLGMDGYRGISLANWMCLAKWESGYNTRATNYNAGDRSTDYGIFQINSRYWCNDGKTPGAVNACHLSCSALLQDNIADAVACAKRVVRDPQGIRAWVAWRNRCQNRDVRQYVQGCGV, for which the Tm came to 59.4 °C, the “unfolding enthalpy (calorimetric)” value is 103 kcal/mol and the “unfolding enthalpy (van 't Hoff)” value came to 103 kcal/mol.

The data set is the same for the next values; noted with them: Homo sapiens; pH 2.83; Thermal; DSC; Gly-HCl 0.05 M; structure 1LZ1; whole UniProt chain shown.
Take MKALIVLGLVLLSVTVQGKSFERCELARTLKRLGMDGYRGISLANWMCLAKWESGYNTRATNYNAGDRSTDYGIFQINSRYWCNDGKTPGAVNACHLSCSALLQDNIADAVACAKRVVRDPQGIRAWVAWRNRCQNRDVRQYVQGCGV: the Tm amounted to 62.9 °C, the “unfolding enthalpy (calorimetric)” value was 108 kcal/mol and the “unfolding enthalpy (van 't Hoff)” value is 107 kcal/mol.

The same data set, now with this note: Homo sapiens; pH 3.09; Thermal; DSC; Gly-HCl 0.05 M; structure 1LZ1; whole UniProt chain shown.
Regarding MKALIVLGLVLLSVTVQGKSFERCELARTLKRLGMDGYRGISLANWMCLAKWESGYNTRATNYNAGDRSTDYGIFQINSRYWCNDGKTPGAVNACHLSCSALLQDNIADAVACAKRVVRDPQGIRAWVAWRNRCQNRDVRQYVQGCGV, the Tm turned out to be 67.1 °C, the “unfolding enthalpy (calorimetric)” value worked out at 115 kcal/mol and the “unfolding enthalpy (van 't Hoff)” value is 114 kcal/mol.

The same data set, now with this note: Homo sapiens; pH 3.45; Thermal; DSC; Gly-HCl 0.05 M; structure 1LZ1; whole UniProt chain shown.
MKALIVLGLVLLSVTVQGKSFERCELARTLKRLGMDGYRGISLANWMCLAKWESGYNTRATNYNAGDRSTDYGIFQINSRYWCNDGKTPGAVNACHLSCSALLQDNIADAVACAKRVVRDPQGIRAWVAWRNRCQNRDVRQYVQGCGV: the Tm worked out at 73 °C, the “unfolding enthalpy (calorimetric)” value came out at 124 kcal/mol and the “unfolding enthalpy (van 't Hoff)” value stood at 126 kcal/mol.

Still in this data set, the particulars now being: Homo sapiens; pH 2.88; Thermal; DSC; Gly-HCl 0.05 M; structure 1LZ1; whole UniProt chain shown.
As to MKALIVLGLVLLSVTVQGKRFERCELARTLKRLGMDGYRGISLANWMCLAKWESGYNTRATNYNAGDRSTDYGIFQINSRYWCNDGKTPGAVNACHLSCSALLQDNIADAVACAKRVVRDPQGIRAWVAWRNRCQNRDVRQYVQGCGV, the Tm turned out to be 66.4 °C, the “unfolding enthalpy (calorimetric)” value stood at 108 kcal/mol and the “unfolding enthalpy (van 't Hoff)” value was determined as 115 kcal/mol.

The same data set, now with this note: Homo sapiens; pH 3.15; Thermal; DSC; Gly-HCl 0.05 M; structure 1LZ1; whole UniProt chain shown.
With MKALIVLGLVLLSVTVQGKRFERCELARTLKRLGMDGYRGISLANWMCLAKWESGYNTRATNYNAGDRSTDYGIFQINSRYWCNDGKTPGAVNACHLSCSALLQDNIADAVACAKRVVRDPQGIRAWVAWRNRCQNRDVRQYVQGCGV, the Tm was found to be 70.7 °C, the “unfolding enthalpy (calorimetric)” value came out at 114 kcal/mol and the “unfolding enthalpy (van 't Hoff)” value came to 123 kcal/mol.

The same data set, now with this note: Homo sapiens; pH 3.3; Thermal; DSC; Gly-HCl 0.05 M; structure 1LZ1; whole UniProt chain shown.
In the case of MKALIVLGLVLLSVTVQGKRFERCELARTLKRLGMDGYRGISLANWMCLAKWESGYNTRATNYNAGDRSTDYGIFQINSRYWCNDGKTPGAVNACHLSCSALLQDNIADAVACAKRVVRDPQGIRAWVAWRNRCQNRDVRQYVQGCGV, the Tm is 74.1 °C, the “unfolding enthalpy (calorimetric)” value was 120 kcal/mol and the “unfolding enthalpy (van 't Hoff)” value stood at 126 kcal/mol.
